# According to patent US9340580B2, “Peptide with multiple epitopes” (priority 2007, dated 2016):
# Values joined by “and” are separate entries in the source; they are usually repeats but may differ in a detail not shown here. Equal values may be shown once. Read-outs that look alike come from different tables or passages of the source. Where a SMILES comes first, the peptide text is derived from it.
# T1: human MHC class II allotype DQA1*0102/DQB1*0602 (human, UniProt P01920 33-230, limits assumed)
# T1 construct: Source and construct of the MHC protein in the assay are not described
# T1 MHC II alpha: not shown
# T1 MHC II beta: not shown
# T2: human MHC class II allotype HLA-DRB1*1501 (human)
# T2 chain 1: not shown
# T2 chain 2: not shown
# T3: human MHC class II allotype HLA-DRB1*1101 (human)
# T3 chain 1: not shown
# T3 chain 2: not shown
# T4: human MHC class II allotype HLA-DRB1*0701 (human)
# T4 chain 1: not shown
# T4 chain 2: not shown
# T5: human MHC class II allotype DQA1*0102/DQB1*0602 (human), P01920
# T5 chain 1: not shown
# T5 chain 2: not shown
# B1: HDM35 (peptide)
# peptide: RGLKQMKRVGDAN
# notes: Synthetic peptide, 84.0% purity
# B2: HDM39A (peptide)
# peptide: HDDVVSMEYDLAYKL
# notes: Synthetic peptide, 80.9% purity
# B3: HDM26A (peptide)
# peptide: DGVLACAIATHAKIR
# notes: Synthetic peptide
# B4: HDM03C (peptide)
# peptide: RNQSLDLAEQELVDCASQH
# notes: Synthetic peptide, 60.1% purity
# B5: HDM48 (peptide)
# peptide: TAIFQDTVRAEMTK
# notes: Synthetic peptide, 79.1% purity
# B6: HDM21 (peptide)
# peptide: KPFQLEAVFEANQNT
# notes: Synthetic peptide, 88.7% purity
# B7: HDM02 (peptide)
# peptide: RTVTPIRMQGGCG
# notes: Synthetic peptide, 79.6% purity
# B8: HDM01 (peptide)
# peptide: IDLRQMRTVTPIR
# notes: Synthetic peptide, 79.2% purity
# B9: HDM34 (peptide)
# peptide: RNIQVRGLKQMKRVG
# notes: Synthetic peptide, 74.7% purity
# B10: HDM30 (peptide)
# peptide: DKFERHIGIIDLK
# notes: Synthetic peptide, 81.4% purity
# B11: HDM40A (peptide)
# peptide: VSMEYDLAYKLGDLH
# notes: Synthetic peptide, 66.9% purity
# B12: HDM20 (peptide)
# peptide: CIIHRGKPFQLEA
# modifications: not checked
# B13: HDM09A (peptide)
# peptide: REALAQTHSAIAVI
# notes: Synthetic peptide, 69.6% purity
# B14: HDM22A (peptide)
# peptide: EAVFEANQNTKTAK
# notes: Synthetic peptide, 90.3% purity
# B15: HDM33 (peptide)
# peptide: LDMRNIQVRGLKQ
# notes: Synthetic peptide, 70.3% purity
# B16: HDM06 (peptide)
# peptide: RYVAREQSCRRPN
# notes: Synthetic peptide, 79.7% purity
# B17: Fel d 1 peptide EQVAQYKALPVVLENA (peptide)
# peptide: EQVAQYKALPVVLENA
# notes: Said to have been tested in an earlier study
# B18: HDM23A (peptide)
# peptide: DGLEVDVPGIDPNACH
# notes: Synthetic peptide, 66.7% purity
# B19: HDM21B (peptide)
# peptide: RGKPFQLEAVFEANQNT
# notes: Synthetic peptide, 82.6% purity
# B20: HDM49 (peptide)
# peptide: DTVRAEMTKVLAP
# notes: Synthetic peptide, 69.5% purity
# B21: HDM21A (peptide)
# peptide: KPFQLEAVFEANQNTK
# notes: Synthetic peptide, 90.1% purity
# Tests used:
# [1] = solubility pre-screen in an aqueous, acidic milieu; assay type: physicochemical
# [2] = precipitation in the aqueous solution of the binding assay; assay type: physicochemical; conditions: aqueous solution of the MHC class II binding assay, read-out: Precipitation in assay: lowest concentration at which an insoluble white precipitate is seen
# Text: (§1) This is a characteristic of promiscuous HLA-DRB1* binders.
# [3] = system: human MHC class II allotypes; test: competitive MHC class II binding assay, statements over the panel; conditions: peptides of reduced purity
# Text: as §1
# This is of significance as purities were seen to vary from 60-90%. This would have a considerable effect on the ability of a peptide to compete if it is relatively impure. […] Therefore, if purity is taken into consideration, they may in fact have an equivalent affinity to a peptide of a higher purity.
# [4] = biological target: T6, human MHC class II allotype HLA-DRB1*1101 (human); test: competitive MHC class II binding assay; competitor control peptide influenza haemagglutinin 307-319;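 also: each test peptide was scored on how well it displaces the known control binder from each human MHC class II allotype studied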
# T6 construct: Source and construct of the MHC protein in the assay are not described
# [5] = biological target: T7, human MHC class II allotype HLA-DRB1*0701 (human); test: as above
# T7 construct: Source and construct of the MHC protein in the assay are not described
# [6] = biological target: T8, human MHC class II allotype HLA-DRB1*0401 (human); test: as above
# T8 construct: Source and construct of the MHC protein in the assay are not described
# [7] = biological target: T1, human MHC class II allotype …; test: competitive MHC class II binding assay; competitor control peptide human insulin B 1-15
# [8] = biological target: T9, human MHC class II allotype HLA-DRB1*0101 (human); test: competitive MHC class II binding assay; competitor control peptide influenza haemagglutinin 307-319;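 also: each test peptide was scored on how well it displaces the known control binder from each human MHC class II allotype studied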
# T9 construct: Source and construct of the MHC protein in the assay are not described
# [9] = biological target: T10, human MHC class II allotype HLA-DRB1*0301 (human); test: competitive MHC class II binding assay; competitor control peptide hsp 65 2-16
# T10 construct: Source and construct of the MHC protein in the assay are not described
# [10] = biological target: T11, human MHC class II allotype HLA-DRB1*1501 (human); test: competitive MHC class II binding assay; competitor control peptide myelin basic protein 85-99
# T11 construct: Source and construct of the MHC protein in the assay are not described
# [11] = biological target: T12, human MHC class II allotype HLA-DRB1*1301 (human); test: competitive MHC class II binding assay; competitor control peptide HLA-DQB1*0603 21-36
# T12 construct: Source and construct of the MHC protein in the assay are not described
# [12] = biological target: T2, human MHC class II allotype …
# [13] = biological target: T3, human MHC class II allotype …
# [14] = biological target: T4, human MHC class II allotype …
# [15] = biological target: T5, human MHC class II allotype …
# [16] = biological target: T11, human MHC class II allotype …; test: competitive MHC class II binding assay, high stringency screen; competitor control peptide myelin basic protein 85-99
molecule,measurement,setting,value
CC[C@H](C)[C@H](NC(=O)[C@H](C)NC(=O)[C@@H](N)[C@@H](C)O)C(=O)N[C@@H](Cc1ccccc1)C(=O)N[C@@H](CCC(N)=O)C(=O)N[C@@H](CC(=O)O)C(=O)N[C@H](C(=O)N[C@H](C(=O)N[C@@H](CCCNC(=N)N)C(=O)N[C@@H](C)C(=O)N[C@@H](CCC(=O)O)C(=O)N[C@@H](CCSC)C(=O)N[C@H](C(=O)N[C@@H](CCCCN)C(=O)O)[C@@H](C)O)C(C)C)[C@@H](C)O [HDM48] (H-TAIFQDTVRAEMTK-OH; N-terminus and C-terminus assumed),Solubility test,[1],YES
same,solubility,[2],1000 µM and 1600 µg/mL
DGLEVDVPGIDPNACH (listed as Dermatophagoides pteronyssinus) [HDM23A],binding affinity in the competition assay (in words),[3],low affinity binding
same,Solubility test,[1],YES
B1,ratio of its own IC50 to that of the control peptide,[4],1.26
B2,ratio of its own IC50 to that of the control peptide,[5],0.71
same,ratio of its own IC50 to that of the control peptide,[6],76.2
same,ratio of its own IC50 to that of the control peptide,[7],0.1
B3,ratio of its own IC50 to that of the control peptide,[5],16.3
same,ratio of its own IC50 to that of the control peptide,[8],42.3
same,ratio of its own IC50 to that of the control peptide,[7],0.61
B4,ratio of its own IC50 to that of the control peptide,[7],0.16
B5,ratio of its own IC50 to that of the control peptide,[9],211
same,ratio of its own IC50 to that of the control peptide,[4],13.6
same,ratio of its own IC50 to that of the control peptide,[5],15.7
B6,ratio of its own IC50 to that of the control peptide,[4],11.7
same,ratio of its own IC50 to that of the control peptide,[8],92
same,ratio of its own IC50 to that of the control peptide,[6],11.2
B7,ratio of its own IC50 to that of the control peptide,[10],80
same,ratio of its own IC50 to that of the control peptide,[7],0.03
B8,ratio of its own IC50 to that of the control peptide,[9],19.2
same,ratio of its own IC50 to that of the control peptide,[5],16
B9,ratio of its own IC50 to that of the control peptide,[10],769
same,ratio of its own IC50 to that of the control peptide,[4],3.38
same,ratio of its own IC50 to that of the control peptide,[11],3.7
B10,ratio of its own IC50 to that of the control peptide,[5],6.2
B11,ratio of its own IC50 to that of the control peptide,[4],6
same,ratio of its own IC50 to that of the control peptide,[5],2.29
B12,ratio of its own IC50 to that of the control peptide,[12],242
same,ratio of its own IC50 to that of the control peptide,[13],28
same,ratio of its own IC50 to that of the control peptide,[14],1.1
same,ratio of its own IC50 to that of the control peptide,[15],2.37
B13,ratio of its own IC50 to that of the control peptide,[10],200
same,ratio of its own IC50 to that of the control peptide,[4],21.1
same,ratio of its own IC50 to that of the control peptide,[5],0.49
B14,ratio of its own IC50 to that of the control peptide,[4],80
same,ratio of its own IC50 to that of the control peptide,[6],329
B15,ratio of its own IC50 to that of the control peptide,[4],41.5
same,ratio of its own IC50 to that of the control peptide,[5],46.5
same,ratio of its own IC50 to that of the control peptide,[11],263
B16,ratio of its own IC50 to that of the control peptide,[4],30.4
same,ratio of its own IC50 to that of the control peptide,[7],0.86
B17,ratio of its own IC50 to that of the control peptide,[16],0.97
B18,ratio of its own IC50 to that of the control peptide,[9],347
same,ratio of its own IC50 to that of the control peptide,[7],0.76
B19,ratio of its own IC50 to that of the control peptide,[4],4.1
same,ratio of its own IC50 to that of the control peptide,[8],13.5
same,ratio of its own IC50 to that of the control peptide,[6],0.78
B20,ratio of its own IC50 to that of the control peptide,[10],671
same,ratio of its own IC50 to that of the control peptide,[7],1.7
B21,ratio of its own IC50 to that of the control peptide,[4],10.3
same,ratio of its own IC50 to that of the control peptide,[8],200
same,ratio of its own IC50 to that of the control peptide,[6],52.2
